Results reported in patent publication KR20220147765A (dated 2022).
Residue numbers refer to the chain shown, from its start.

B1: RB6 (antibody, V domains shown)
VH: EVQLLESGGGLVQPGGSLRLSCAASGFTFSSYDMSWVRQAPGKGLEWVSGISYSGGSTYYADSVKGRFTISRDNSKNTLYLQMNSLRAEDTAVYYCARDVNFVPLVTFDYWGQGTLVTVSS
VL: QSVLTQPPSASGTPGQRVTLSCTGSSSNIGSNSVTWYQQLPGTAPKLLIYDDNQRPSGVPDRFSGSKSGTSASLAISGLRSEDEADYYCGTWDYSLSAYVFGGGTKLTVL
notes: also called SARS-CoV-2 RBD 특이적 IgG 선별항체 RB6; clone RB6
B2: RD10 (antibody, V domains shown)
VH: EVQLLESGGGLVQPGGSLRLSCAASGFTFSDYAMSWVRQAPGKGLEWVSAIYPGGGSTYYADSVKGRFTISRDNSKNTLYLQMNSLRAEDTAVYYCARNLFGFDYWGQGTLVTVSS
VL: B1 VL with L20I, S33A, T35Y, N53S, Q54N, T91S, Y94D
notes: also called SARS-CoV-2 RBD 특이적 IgG 선별항체 RD10; clone RD10
B3: RD3 (antibody, V domains shown)
VH: EVQLLESGGGLVQPGGSLRLSCAASGFTFSDYAMSWVRQAPGKGLEWVSWIYSGSGNKYYADSVKGRFTISRDNSKNTLYLQMNSLRAEDTAVYYCARFPIARTSNSQSSYDGMDVWGQGTLVTVSS
VL: B1 VL with L20I, T23S, S33A, T35S, D51A, Q54K, T91A, Y94S, S97N
notes: also called SARS-CoV-2 RBD 특이적 IgG 선별항체 RD3; clone RD3

What follows are binders tested against T1, SARS-CoV S 단백질의 RBD 항원 (SARS-CoV, UniProt P59594 306-527) (assay: ELISA, 0.1 μg antigen coated, IgG4).
T1 construct: also called SARS-CoV RBD
B1: binds. B2: binds. B3: binds.
